Substrate in data set [1]: NCCCOc1ccc(Cl)cc1-c1nc2ccc(Cl)cc2c(=O)[nH]1
The experiment in a line: Enzymatic kinetics of MAO-HPQ 1 oxidation (Lineweaver-Burk plot), MAO A. Type of data set: biochemical. Conditions: other: MAO A, Tris-buffer 100 mM pH 7.90, 25° C., pH 7.9. The protocol:
(§1) The enzyme kinetics was carried out in Tris-buffer (100 mM, pH 7.90) at 25° C. The enzymatic oxidation of fluorogenic substrate MAO-HPQ 1 was monitored in Varian Cary eclipse Fluorescence spectrophotometer. To a series of different MAO-HPQ 1 substrate concentration (ranged from 0˜250 μM) were added a solution of MAO A or MAO B enzyme with final concentration of […] was added to adjust the final volume to 100 μl. The rate of enzymatic oxidation was monitored with the increase of fluorescent enhancement at 530 nm. The values of the enzyme kinetic parameters (Km and Kcat) were determined from the standard Lineweaver-Burk plot, the double-reciprocal plot of the reaction rate versus MAO-HPQ 1 concentration.
(§2) Measurement of the fluorescent signal at different substrate concentrations provided the Michaelis-Menten kinetics constants.

Substrate in data set [2]: NCCCOc1ccc(Cl)cc1-c1nc2ccc(Cl)cc2c(=O)[nH]1
In words: Enzymatic kinetics of MAO-HPQ 1 oxidation (Lineweaver-Burk plot), MAO B. Type of data set: biochemical. The following applies: other: MAO B, Tris-buffer 100 mM pH 7.90, 25° C., pH 7.9. The protocol:
as §1, §2

B1: MAO A (Homo sapiens) (protein)
chain: MENQEKASIAGHMFDVVVIGGGISGLSAAKLLTEYGVSVLVLEARDRVGGRTYTIRNEHVDYVDVGGAYVGPTQNRILRLSKELGIETYKVNVSERLVQYVKGKTYPFRGAFPPVWNPIAYLDYNNLWRTIDNMGKEIPTDAPWEAQHADKWDKMTMKELIDKICWTKTARRFAYLFVNINVTSEPHEVSALWFLWYVKQCGGTTRIFSVTNGGQERKFVGGSGQVSERIMDLLGDQVKLNHPVTHVDQSSDNIIIETLNHEHYECKYVINAIPPTLTAKIHFRPELPAERNQLIQRLPMGAVIKCMMYYKEAFWKKKDYCGCMIIEDEDAPISITLDDTKPDGSLPAIMGFILARKADRLAKLHKEIRKKKICELYAKVLGSQEALHPVHYEEKNWCEEQYSGGCYTAYFPPGIMTQYGRVIRQPVGRIFFAGTETATKWSGYMEGAVEAGERAAREVLNGLGKVTEKDIWVQEPESKDVPAVEITHTFWERNLPSVSGLLKIIGFSTSVTALGFVLYKYKLLPRS
notes: purchased Sigma Aldrich
With B1, in data set [1], the Km worked out at 146.1 ± 7.21 µM and the kcat worked out at 0.163 ± 0.00817 s⁻¹.

B2: MAO B (Homo sapiens) (protein)
chain: MSNKCDVVVVGGGISGMAAAKLLHDSGLNVVVLEARDRVGGRTYTLRNQKVKYVDLGGSYVGPTQNRILRLAKELGLETYKVNEVERLIHHVKGKSYPFRGPFPPVWNPITYLDHNNFWRTMDDMGREIPSDAPWKAPLAEEWDNMTMKELLDKLCWTESAKQLATLFVNLCVTAETHEVSALWFLWYVKQCGGTTRIISTTNGGQERKFVGGSGQVSERIMDLLGDRVKLERPVIYIDQTRENVLVETLNHEMYEAKYVISAIPPTLGMKIHFNPPLPMMRNQMITRVPLGSVIKCIVYYKEPFWRKKDYCGTMIIDGEEAPVAYTLDDTKPEGNYAAIMGFILAHKARKLARLTKEERLKKLCELYAKVLGSLEALEPVHYEEKNWCEEQYSGGCYTTYFPPGILTQYGRVLRQPVDRIYFAGTETATHWSGYMEGAVEAGERAAREILHAMGKIPEDEIWQSEPESVDVPAQPITTTFLERHLPSVPGLLRLIGLTTIFSATALGFLAHKRGLLVRV
notes: purchased Sigma Aldrich
Turning to B2, in data set [2], the Km amounted to 106.8 ± 5.06 µM, the kcat came out at 0.141 ± 0.007 s⁻¹ and the kcat/Km was determined as 1320 M⁻¹ s⁻¹.

Values taken from patent US8697714B2, “Quinazolinone based fluorogenic probes” (Nanyang Technological University, priority 2010, dated 2014).
